For one substance, Kd results are on record in patent US7144988B2, “Method of structure-based drug design to create or improve modulators of IL-1 activity which bind to the interleukin-1 type 1 receptor” (Array Biopharma, Inc., priority 2002, dated 2006).

The term Kd denotes the constant that tells how readily two partners part at equilibrium.

The experiment concerns the target T1, IL1R2D (modified IL-1 type 1 receptor, amino acids 18 to 222) (Homo sapiens, UniProt P14778).
T1 construct: made in house; host or cells: Hi5 insect cells, recombinant baculovirus (made in Sf9)
T1 sequence (P14778 18-222): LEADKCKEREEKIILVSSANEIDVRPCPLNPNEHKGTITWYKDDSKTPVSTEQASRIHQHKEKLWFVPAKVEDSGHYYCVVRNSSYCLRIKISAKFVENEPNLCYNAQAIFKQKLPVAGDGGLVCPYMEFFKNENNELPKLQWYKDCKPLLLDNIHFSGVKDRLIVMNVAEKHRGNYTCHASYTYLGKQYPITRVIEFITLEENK
Briefly: Binding affinity of ligands to modified IL-1 type 1 receptor IL1R2D.

Take “IL-1ra: IL-1 receptor antagonist protein; competes with IL-1α and β for receptor binding”: the Kd was ≥ 1000 nM.
